Assay results published in article PMC10234869.

B1: Signal Peptide Peptidase-like 2c, C-terminally myc-tagged (SPPL2c-myc) (enzyme)
chain: EYGLVRVVSKNWSKDYCVLYSSDYVNLPRDLHHAPLLSLHDGTKTPWCPDEDSFHQAQDSSPRQRPLHQTTTMVTRGNCSFYAKGWLAQDQGAQGLLIVSRARNQQCSDTISKPQDPSKPWPALTIPVAVLRYTDMLDIVSHTYGDTDVRVAMFAPLEPVTDYNMAIIFILAVGTVAAGGYWAGLMEANKLQRRQAQRGGGLGGHNQQQTVAAERSQRAWEDDDFEDAPMDFTPAMTGAVVTMSCSIMILLYFFYDCFVYVMIGIFSLGASTGLYSCLAPILCHLPLWRYQWVLPGQRVSVTWPLLLLAGLCAMVTVLWVIHRNEDHWAWLLQDTLGVAYCLFVLRRVRLPTFKNCTLFLLALLAFDVFFVFITPLFTKTGESIMVEVASGPADSSSHERLPMVLKVPRLSFSALTLCNQPFSILGFGDIVVPGFLVAYCHRFDMQVQSRQVYYMACTVAYAVGLLVTFVAMILMQMGQPALLYLVSSTLLTSLAVATCRQEFTLFWTGQGRAKIPAEPVAQPCIASAVGSKMKLEDAKDSRTTNRFEQAVDGESGDLESSTGDDMAEMVTLSEDEATSPEGHSESSEGWSDTNLDPNELPSGSPMALEAMLIPLIQPIPHPSELGHIRTQSRVHDSSLPWMGLHKRKGLKVKKSMSAQAPL

Key:
[1] = target: Signal Peptide Peptidase-like 2c, C-terminally myc-tagged (SPPL2c-myc) (murine) (UniProt A2A6C4)
[2] = target: Frey1 CD74-Lum (Frey1-3xFLAG with its luminal domain replaced by the first 70 aa of the luminal segment of CD74) (murine) (UniProt Q8CF31); assay: co-IP; anti-FLAG M2 and Protein G agarose from 0.5% CHAPSO lysates (1 mg in 500 µl, overnight, 4 °C) of transiently transfected HEK293T cells; four washes with CHAPSO buffer; eluates blotted; co-precipitated SPPL2c divided by the precipitated Frey1 or PLN variant and normalised to wild-type Frey1

Row | Molecule | inhibition of SPPL2c-mediated processing of HA-RAMP4-2 in HEK cells (Fig. 4H, I) [1] | co-precipitated SPPL2c, percent of wild-type Frey1, normalised to the expression level [2]
1 | PLN PRSAG (3xFLAG-PLN with the Frey1 residues P11, R12, S16, A25 and G26 at the corresponding positions of its membrane anchor) (from UniProt P61014 1-52) | 50% | 
2 | B1 |  | 20%
